Test results: patent publication US20050272633A1 (YEDA RESEARCH AND DEVELOPMENT, published 2005)

Legend:
[1] = target: T1, NF-κB-inducing kinase, NIK (MAP3K14), full length (human, UniProt Q99558 1-947); assay: yeast two-hybrid
T1 construct: range 1-947; also called full length NIK; endogenous NIK

[2] = target: T1, NF-κB-inducing kinase, NIK (MAP3K14), …; assay: yeast two-hybrid, NIK as bait, 41 MDD as prey
Description: (§1) To define the domain of cγc responsible for binding NIK, deletion mutants of cγc have been created and their binding to NIK analysed (FIG. 1). The deletion mutants were created by sequentially introduction of stop codons in the cytoplasmic domain of cγc, in gaps of 10-20 amino acids. The DNA encoding the full-length cγc or its deletion mutants were introduced into the pGADT7 prey vector (Clontech) for testing their binding to NIK in the SFY526 heterologous yeast strain by the two hybrid assay. The SFY526 yeast strain is […] for TRP and Leu. pGBKT plasmids (bait vector) have the Trp1 wild type gene and pGAD has the wild type Leu2 gene. Thus, only doubly transfected yeast will grow on selective Leu Trp media. Functional GAL4 will be restored in doubly transfected yeast when the chimeric proteins fused to GAL4 domains interact, bringing the activation domain and DNA binding domain of GAL4 to close proximity. The level of LAC-Z expression is indicative of the strength of the protein-protein interaction. Lac-Z activity was assessed by the standard beta-gal/colony lift filter assay (Clontech, Yeast Protocol Handbook, Chapter VI).
(§2) The binding of 41 MDD polypeptide to full length NIK or C-terminus NIK was tested in both orientations (i.e. 41 MDD as the pray and NIK as the bait and vice versa). […]

[3] = target: T2, NIK624-947 (C-terminal domain of NIK) (human, UniProt Q99558 624-947); assay: yeast two-hybrid, NIK624-947 as bait, 41 MDD as prey
T2 construct: GAL4 DNA-BD or AD fusion in the two-hybrid tests; expressed from pcdnNIK (co-IP) or pcS3MTdnNIK (reporter assay) in 293-T cells; also called C-terminus of NIK; NIK C-terminus
T2 sequence (Q99558 624-947 limits assumed): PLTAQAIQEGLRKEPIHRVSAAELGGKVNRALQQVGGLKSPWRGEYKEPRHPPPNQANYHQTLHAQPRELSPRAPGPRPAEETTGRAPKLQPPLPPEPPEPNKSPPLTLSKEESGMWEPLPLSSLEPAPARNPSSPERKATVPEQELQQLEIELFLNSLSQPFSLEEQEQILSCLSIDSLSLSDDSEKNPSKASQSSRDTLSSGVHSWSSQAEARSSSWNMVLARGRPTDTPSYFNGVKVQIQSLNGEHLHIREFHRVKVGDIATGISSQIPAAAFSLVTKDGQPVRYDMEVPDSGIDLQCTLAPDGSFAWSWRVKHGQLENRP
Description: as §1, §2

T1 sequence (Q99558 whole entry): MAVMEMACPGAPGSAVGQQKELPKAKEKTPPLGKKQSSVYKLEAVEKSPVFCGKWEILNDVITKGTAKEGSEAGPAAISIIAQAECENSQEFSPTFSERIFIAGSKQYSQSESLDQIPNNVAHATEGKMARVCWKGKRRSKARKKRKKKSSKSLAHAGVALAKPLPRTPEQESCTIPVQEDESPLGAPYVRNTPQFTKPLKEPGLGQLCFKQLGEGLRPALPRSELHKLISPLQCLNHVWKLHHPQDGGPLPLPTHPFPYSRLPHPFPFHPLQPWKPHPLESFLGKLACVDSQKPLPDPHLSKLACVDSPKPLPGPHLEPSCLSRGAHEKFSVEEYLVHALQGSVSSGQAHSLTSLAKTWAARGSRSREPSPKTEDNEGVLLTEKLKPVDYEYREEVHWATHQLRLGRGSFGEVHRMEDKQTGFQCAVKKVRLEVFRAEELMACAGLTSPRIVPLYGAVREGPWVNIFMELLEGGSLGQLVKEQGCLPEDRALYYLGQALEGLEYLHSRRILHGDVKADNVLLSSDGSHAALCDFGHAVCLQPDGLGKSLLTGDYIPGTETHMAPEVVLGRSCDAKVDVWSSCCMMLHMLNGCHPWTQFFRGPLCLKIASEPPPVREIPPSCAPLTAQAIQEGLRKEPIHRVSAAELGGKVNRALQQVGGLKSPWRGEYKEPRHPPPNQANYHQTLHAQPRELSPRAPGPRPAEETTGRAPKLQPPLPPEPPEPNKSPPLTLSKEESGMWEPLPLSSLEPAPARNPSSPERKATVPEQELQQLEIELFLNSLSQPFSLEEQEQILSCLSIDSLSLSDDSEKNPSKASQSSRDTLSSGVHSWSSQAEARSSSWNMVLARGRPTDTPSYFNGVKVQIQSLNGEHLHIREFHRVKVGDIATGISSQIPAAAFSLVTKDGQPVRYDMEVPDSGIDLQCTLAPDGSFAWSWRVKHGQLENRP

Row | binding result [1] | binding result [2] | binding result [3] | Binder
1 | binds |  |  | WLERTMPRIPTLKNLEDLVTEYHGNFSAWSGVSKGLAESLQPDY (Two-hybrid constructs comprising intracellular fragments close to the membrane proximal domain) [44MPD (cγc membrane proximal domain, residues 282-325)]
2 |  | binds | binds | LCLVSEIPPKGGALGEGPGASPCNQHSPYWAPPCYTLKPET (GAL4 fusion (bait or prey) in two-hybrid; also called 41 amino acid polypeptide from the membrane distal domain of cγc) [cγc 329-369 (41 MDD polypeptide)]
